PMC4263446 (Molecular Biology of the Cell, 2014)

Biological target: the molecule itself
Assay: non-reducing SDS-PAGE

B1: Flag-CD73L (canonical ecto-5′-nucleotidase, long protein isoform of CD73) (enzyme, human, UniProt P21589-1 27-549, looked up)
chain: WELTILHTNDVHSRLEQTSEDSSKCVNASRCMGGVARLFTKVQQIRRAEPNVLLLDAGDQYQGTIWFTVYKGAEVAHFMNALRYDAMALGNHEFDNGVEGLIEPLLKEAKFPILSANIKAKGPLASQISGLYLPYKVLPVGDEVVGIVGYTSKETPFLSNPGTNLVFEDEITALQPEVDKLKTLNVNKIIALGHSGFEMDKLIAQKVRGVDVVVGGHSNTFLYTGNPPSKEVPAGKYPFIVTSDDGRKVPVVQAYAFGKYLGYLKIEFDERGNVISSHGNPILLNSSIPEDPSIKADINKWRIKLDNYSTQELGKTIVYLDGSSQSCRFRECNMGNLICDAMINNNLRHTDEMFWNHVSMCILNGGGIRSPIDERNNGTITWENLAAVLPFGGTFDLVQLKGSTLKKAFEHSVHRYGQSTGEFLQVGGIHVVYDLSRKPGDRVVKLDVLCTKCRVPSYDPLKMDEVYKVILPNFLANGGDGFQMIKDELLRHDSGDQDINVVSTYISKMKVIYPAVEGRIKFS
modifications: glycosylated (Asn-311/333/403)
stoichiometry N: 2
